Laboratory results as given in US20080261267A1, “Cellulases from Rumen” (priority 2004, published 2008).

Key:
Type in all cases: biochemical
[1] = pH-dependent activity and pH stability; conditions: cell lysates; CMC; 40° C.
Method: (§1) FIG. 3 represents Table 3 giving an overview over the biochemical properties of the cellulases according to the invention. Reaction was performed at the optimum pH and temperature for each done using CMC as substrate. […] The values for clones pBKRR.1, 9, 11, 13, 14, 16 and 22 are depicted. For each clone the following data are given: • maximum pH at which the remaining activity after 24 h incubation at the indicate pH is >90% (column “Stable at pH”). […] Activity was measured after 2 h incubation and compared with a control reaction in buffer lacking dimethylsulfoxide, • detergent resistance given by the remaining activity in the corresponding buffer (optimum pH) containing the indicate detergent at a concentration for 0 to 3%. […]
(§2) FIG. 4 a-c represent the results of the determination of pH and temperature optima showing graphically views of the pH-dependence activity and temperature-dependence activity of the polypeptides according to the invention. The pH optima of rumial endoglucanases were measured under conditions described in Example 5: 4% CMC, 0.5 mL of 50 mM buffer at the corresponding pH and 0.1 mg E. coli cell lysates, for 5-30 min, at 40° C. Effect of temperature on endoglucanase activity was measured in 50 mM sodium acetate buffer pH 5.6. […]

[2] = Detergent resistance (effect of surfactants on activity)
Method: The detergent resistance or in other words the effect of surfactants on the activity of the polypeptide of the invention was measured. […] Also, the effect of several commonly used inhibitors on the activity of the polypeptide of the invention was investigated. Sulfhydryl inhibitors such as N-ethylmaleimide, iodoacetate and p-chloromercuribenzoate were all inhibitory. The chelating agents EDTA (ethylenediaminetetraacetic acid) and EGTA (ethyleneglycoltetraacetic acid) a more efficient chelator of Ca^2+ (inhibition >30%) and O-phenanthroline (inhibition >71%) had essentially no effect on the activity of the polypeptides or were slightly stimulatory. In summary, the polypeptides of the invention are well suited to be used for the treatment of cellulosic textiles or fabrics, especially as an ingredient in a detergent composition, because of their high activity at high pH and high stability against metal ions or various components of laundry products such as surfactants, chelating agents or proteinases. In general, they are also suited to be used in compositions containing several commonly used inhibitors.
(§3) FIG. 3 represents Table 3 giving an overview over the biochemical properties of the cellulases according to the invention. Reaction was performed at the optimum pH and temperature for each done using CMC as substrate. […] The values for clones pBKRR.1, 9, 11, 13, 14, 16 and 22 are depicted. For each clone the following data are given: • maximum pH at which the remaining activity after 24 h incubation at the indicate pH is >90% (column “Stable at pH”). […] Activity was measured after 2 h incubation and compared with a control reaction in buffer lacking dimethylsulfoxide, • detergent resistance given by the remaining activity in the corresponding buffer (optimum pH) containing the indicate detergent at a concentration for 0 to 3%. […] The effect of mono- (Na^+, K^+, NH4^+, and divalent cations (Ca^2+, Mn^2+, Mg^2+, Sr^2+, Fe^2+, Cu^2+, Ni^2+, Co^2+, Zn^2+) was first examined by treating the enzyme with chelating agents (EDTA and EGTA) to remove any endogenous divalent cations, followed by adding cations to the reaction mixture.
To study the effect of cations, inhibitors and surfactants on endoglucanase activity, the conditions were as follows: All cations tested were added as chloride salts and tested at a concentration of 10 mM. […] The effects of detergents on the endoglucanase activity was analysed by adding of 1-3% (wt/vol) detergent to the enzyme solution. In all cases, the enzyme activity was assayed in triplicate using the standard cellulose assay described above and the residual activity was expressed as percent of the control value (without addition of chemicals).

[3] = Thermal activity and thermostability; conditions: at the pH optima; CMC
Method: as §1, §2

Cation dependence = conditions: 10 to 100 mM
Method: as §3
[…] Inhibitors such as N-ethylmalemide, iodoacetate and p-chloromercuribenzoate at concentration from 1-5 mM were incubated in the presence of the enzyme for 30 min (30° C.) prior to the addition of the substrate (CMC). The effects of detergents on the endoglucanase activity was analysed by adding of 1-3% (wt/vol) detergent to the enzyme solution. In all cases, the enzyme activity was assayed in triplicate using the standard cellulose assay described above and the residual activity was expressed as percent of the control value (without addition of chemicals).

B1: pBKRR.22: rumen endo-beta-1,4-glucanase, sequences FIG. 11/19 (protein)
chain: MLLASFSLFSCGGSDGDDSTPTPSVSLQLVSQSIAEGAQVDAASTTVLTLNYNNPVRVTGNGVTLNGIAVKAKVSGNTSVEIPLTLVEGTVYTLKVAWGAIVAAADGKVVAPEFTLNFTTKGNQQPPIDENSPIAKKMGWGWNLGNHFDTSSGADGVRPQWGYWDNAKPTQVLYNNLRNAGTSTVRIGVTWGNYQNTSNWDIDANYIAEVRQNVEWAEAAGLNVILNMHHDEYWLDIKGAANNSSTNTNIKNRIEKTWKQIAEAFKDKGEFLIFESFNEIQDGGWGWGANRTDGGKQYKTLNEWNQLVVNTIRATGGNNATRWIGIPSYAANPSLALETGFVLPTDAANRLMVSVHFYDPSNFTLSPYVSDDSSEYKSGGYSEWGHTAAKGKADTGSNEDHVVAIFKKLHDKFVAKNIPVYIGEYGCVMHKNTRSNYFRNYYLEYVCRAAHEYGMPLCIWDNNQTGGGNEHHGYFNHTDGQYLNAMESLVKTMIKAATSDDASYTLESVYNKAPK
modifications: Description of sequence sequence derived from genomic DNA library from rumen ecosystem, particularly amino acid sequence of clones pBKRR 22, 6, 8 and 23;(see Figure 19)
[1]
  activity at alkaline (pH 9.0-10.0) and acidophilic (3.5-4.0) conditions: without variation of enzyme activity
[2]; SDS 1 mM or higher
  effect of SDS on activity: inhibited by SDS at concentrations higher than 1 mM
[2]; Triton X-100 up to 1-3%
  effect of Triton X-100 on activity: resistant to Triton X-100 up to 1-3%

B2: pBKRR.14: rumen endoglucanase, sequences FIG. 16/24; also capable of hydrolyzing xylan (protein)
chain: MINVLQHHPEVELSVDKTSVSFNRSGGEETFTVTSSTQPHVSADVSWVVVETGKIDKDHHTEVRVLAGANRKEASAGTLTVSCSDKKVSVSVKQEAFVAPSVASTTAVTPQMVFDAMGPGWNMGNHMDAISNGVSGETVWGNPKCTQATMDGVKAAGYKAVRICTTWEGHIGAAPAYALEQKWLDRVAEIVGYAEKAGLVAIVNTHHDESYWQDISKCYNNAANHEKVKDEVFSVWTQIAEKFKDKGEWLVFESFNEIQDGGWGWSDAFRKNPDAQYKVLNEWNQTFVDAVRSTGGQNATRWLGIPGYACNPGFTIAGLVLPKDYTTANRLMVAVHDYDPYDYTLKDPLIRQWGHTADADKRPSGDNEKAVVDVFNNLKAAYLDKGIPVYLGEMGCSRHTAADFPYQKYYMEYFCKAAADRLLPMYLWDNGAKGVGSERHAYIDHGTGQFVDEDARTLVGLMVKAVTTKDASYTLESVYNSAP
modifications: Description of sequence sequence derived from genomic DNA library from rumen ecosystem, particularly amino acid sequence of clones pBKRR 14 and 20-1; RR14=RR20-1;(see Figure 24)
notes: also capable of hydrolyzing xylan
[3]
  temperature of improved activity and thermostability: 70 °C
Cation dependence; chloride salt
  stimulatory effect of Mg^2+: 127%
Cation dependence; chloride salts, after EDTA and EGTA treatment
  influence of mono- and divalent cations on activity: not influenced
[2]; SDS 1-3%, 2 h incubation, versus control without detergent
  activity in the presence of SDS (% more active and stable): 161%
[2]; Triton X-100 1-3%, 2 h incubation, versus control without detergent, pH and temperature per clone
  activity in the presence of Triton X-100 (% more active and stable): 134%
